Measurements taken from patent US20260035456A1 (SHANGHAI JEYOU PHARMACEUTICAL, published 2026).
Substitutions are numbered along the chain they refer to.

T1: biotin-labeled mouse ADM (mouse, not fully specified; biotin label (named mouse ADM-C-biotin in Example 1.4; position of the biotin not stated for the other lots))
T1 construct: Synthetic peptide; also called mouse ADM-C-biotin; mADM-Biotin
T1 peptide: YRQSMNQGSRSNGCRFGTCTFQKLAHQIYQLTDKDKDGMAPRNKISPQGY

T2: biotin-labeled human ADM (human, not fully specified; biotin label (named human ADM-C-biotin in Example 1.4; position of the biotin not stated for the other lots))
T2 construct: Synthetic peptide; also called human ADM-C-biotin; hADM-Biotin
T2 peptide: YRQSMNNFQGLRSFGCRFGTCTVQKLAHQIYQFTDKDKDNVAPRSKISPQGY

B1: Ab2004.Am32 (Fab displayed on yeast) (Fab, V domains shown)
VH: QVQLVQSGAEVKKPGASVKVSCKASGYTFTQYGIAWVRQAPGQGLEWMGWISAYQGNTNYAQKLQGRVTMTRDTSTSTAYMELRSLRSDDTAVYYCAREGRWGGSFNIWGQGTMVTVSS
VL: DIQMTQSPSSLSASVGDRVTITCRAAEGIGSYLAWYQQKPGKAPKLLIYDASNLETGVPSRFSGSGSGTDFTFTISSLQPEDIATYYCQQYDNLPLTFGGGTKVEIK
notes: Yeast monoclonal colony of library JYYDL227 (Fab display)
B2: Ab2004.Am34 (Fab displayed on yeast) (Fab, V domains shown)
VH: B1 VH with Q31H
VL: B1 VL with A26S, E27Q, G30S, A51V, N53I, E55D, T56A
notes: as for B1
B3: Ab2004.Am36 (Fab displayed on yeast) (Fab, V domains shown)
VH: B1 VH
VL: B1 VL with A26S, E27Q, G30S, L54V, E55D
notes: as for B1
B4: Ab2004.Am37 (Fab displayed on yeast) (Fab, V domains shown)
VH: B1 VH with Q31S, A35S, A53P, Q55T, N57K
VL: B1 VL with A26S, E27Q, G30S, A51V, N53I, E55D, T56A
notes: as for B1
B5: Ab2004.Am38 (Fab displayed on yeast) (Fab, V domains shown)
VH: B1 VH with Q31S, A35S, A53P, Q55T, N57K
VL: B1 VL with A26S, E27Q, G30S, A51T, N53D, E55D
notes: as for B1
B6: Ab2004.Am01 (Fab displayed on yeast) (Fab, V domains shown)
VH: B1 VH with Q31S, A35S
VL: B1 VL with A26S, E27Q, G30S
B7: Ab2004.Am31 (Fab displayed on yeast) (Fab, V domains shown)
VH: B1 VH
VL: B1 VL with A26S, G30S, S31E
notes: as for B1
B8: Ab2004.Am33 (Fab displayed on yeast) (Fab, V domains shown)
VH: B1 VH with Q31S, A35S, A53P, Q55S
VL: B1 VL with A26S, G30S, S31E
notes: as for B1
B9: Ab2004.Am35 (Fab displayed on yeast) (Fab, V domains shown)
VH: B1 VH
VL: B1 VL with A26S, E27Q, G30S, A51V, N53I, E55D, T56A
notes: as for B1
B10: chimeric antibody 2004hz00 (antibody, human IgG1, kappa)
heavy: not shown
light: DVLMTQTPFSLPVSLGDQASISCRSSQSIIDSDGNTYLEWYLQKPGQSPKLLIYKVSNRFSGVPDRFSGSGSGTDFTLRISRVEAEDLGVYYCFQGSHFPYTFAGGTKLELKRTVAAPSVFIFPPSDEQLKSGTASVVCLLNNFYPREAKVQWKVDNALQSGNSQESVTEQDSKDSTYSLSSTLTLSKADYEKHKVYACEVTHQGLSSPVTKSFNRGEC
notes: Human IgG1/kappa
B11: humanized antibody 2004hz97 (antibody, human IgG1, kappa)
heavy: not shown
light: DVVMTQSPLSLPVTLGQPASISCRSSQSIIDSDGNTYLEWYQQRPGQSPRLLIYKVSNRFSGVPDRFSGSGSGTDFTLKISRVEAEDFGVYYCFQGSHFPYTFGQGTKLEIKRTVAAPSVFIFPPSDEQLKSGTASVVCLLNNFYPREAKVQWKVDNALQSGNSQESVTEQDSKDSTYSLSSTLTLSKADYEKHKVYACEVTHQGLSSPVTKSFNRGEC
notes: Human IgG1/kappa
B12: humanized antibody 2004hz99 (antibody, human IgG1, kappa)
heavy: not shown
light: B11 light with V3L, G104A
notes: Human IgG1/kappa
B13: Ab2004.Am37 (IgG1 antibody) (antibody, V domains shown)
VH: B1 VH with Q31S, A35S, A53P, Q55T, N57K
VL: DIQMTQSPSSLSASVGDRVTITCRASQGISSYLAWYQQKPGKAPKLLIYDVSILDAGVPSRFSGSGSGTDFTFTISSLQPEDIATYYCQQYDNLPLTFGGGTKVEIKR
notes: Expressed in CHO cells, human IgG1/kappa
B14: Ab2004.Am38 (IgG1 antibody) (antibody, V domains shown)
VH: B1 VH with Q31S, A35S, A53P, Q55T, N57K
VL: B13 VL with V51T, I53D, A56T
notes: as for B13
B15: Ab2004.Am39 (IgG1 antibody) (antibody, V domains shown)
VH: B1 VH with Q31H
VL: B13 VL with V51A, I53N, D55E, A56T, N93D, P95D
notes: as for B13
B16: Ab2004.Am40 (IgG1 antibody) (antibody, V domains shown)
VH: B1 VH
VL: B13 VL with V51A, I53N, D55E, A56T, N93D, T97S
notes: as for B13
B17: Enibarcimab (antibody, V domains shown)
VH: QVQLVQSGAEVKKPGSSVKVSCKASGYTFSRYWIEWVRQAPGQGLEWIGEILPGSGSTNYNQKFQGRVTITADTSTSTAYMELSSLRSEDTAVYYCTEGYEYDGFDYWGQGTTVTVSS
VL: DVVLTQSPLSLPVTLGQPASISCRSSQSIVYSNGNTYLEWYLQRPGQSPRLLIYRVSNRFSGVPDRFSGSGSGTDFTLKISRVEAEDVGVYYCFQGSHIPYTFGGGTKLEIKR
B18: fully human antibody Ab2004.Am01 (expressed antibody) (antibody, V domains shown)
VH: B1 VH with Q31S, A35S
VL: B1 VL with A26S, E27Q, G30S
notes: also called parent antibody Ab2004.Am01

Biological target: T1, biotin-labeled mouse ADM
Assay: flow staining of yeast-displayed Fab at graded antigen concentrations
Excerpt: (§1) For the first round of screening products of JYYDL227, 46 monoclones were picked for sequencing, and finally, a yeast monoclonal colony with a unique sequence was obtained for EC₅₀ identification by flow staining.
(§2) According to the staining results of the clones (as shown in Table 6) in combination with the similarity of the sequences of the clones, the monoclones expressing antibodies Ab2004.Am31 (with amino acid sequences of variable regions set forth in SEQ ID NOs: 31 and 36), Ab2004.Am32 (with amino acid sequences of variable regions set forth in SEQ ID NOs: 31 and 37), Ab2004.Am33 (with amino acid sequences of variable regions set forth in SEQ ID NOs: 32 and 36), Ab2004.Am34 (with amino acid sequences of variable regions set forth in SEQ ID NOs: 33 and 38), Ab2004.Am35 (with amino acid sequences of variable regions set forth in SEQ ID NOs: 31 and 38), Ab2004.Am36 (with amino acid sequences of variable regions set forth in SEQ ID NOs: 31 and 39), Ab2004.Am37 (with amino acid sequences of variable regions set forth in SEQ ID NOs: 34 and 38), Ab2004.Am38 (with amino acid sequences of variable regions set forth in SEQ ID NOs: 34 and 40), Ab2004.Am39 (with amino acid sequences of variable regions set forth in SEQ ID NOs: 33 and 41), and Ab2004.Am40 (with amino acid sequences of variable regions set forth in SEQ ID NOs: 31 and 42) were finally selected. The amino acid sequences of the Chothia-numbered CDRs of the candidate antibodies are shown in Table 7, and the amino acid sequences of the light and heavy chain variable regions of the candidate antibodies are shown in Table 8.

| Binder | EC50 |
| --- | --- |
| B1 | 2.2 nM |
| B2 | 4.43 nM |
| B3 | 2.67 nM |
| B4 | 6.74 nM |
| B5 | 14.3 nM |
| B6 | 88.2 nM |
| B7 | 1.66 nM |
| B8 | 15 nM |
| B9 | 2.26 nM |

Biological target: T2, biotin-labeled human ADM
Assay: as above
Excerpt: as §1, §2

| Binder | EC50 |
| --- | --- |
| B1 | 0.41 nM |
| B2 | 1.06 nM |
| B3 | 1.73 nM |
| B4 | 0.88 nM |
| B5 | 0.74 nM |
| B6 | 4 nM |
| B7 | 0.45 nM |
| B8 | 0.79 nM |
| B9 | 1.47 nM |

Biological target: T1, biotin-labeled mouse ADM
Assay: BLI (Octet RED96e), biotinylated antigen on SA sensor, antibody 100 nM, 1:1 fit
Description: (§3) The affinity of antibodies 2004hz00, 2004hz97, and 2004hz99 for biotin-labeled human and mouse ADM (human ADM Cat. No. 894757, mouse ADM Cat. No. 894758, synthesized by GLBiochem) was determined by adopting Octet RED96e (Fortebio). The antigens and the antibodies were all diluted with 1× PBST (1× PBS: Sangon, B548117-0500; 0.02% Tween 20: sigma, P1379), the concentration of the antibody used was 100 nM, and the concentration of the antigen used was 2 μg/mL. The candidate antibody sample was added to a 96-well plate (Greiner bio-one, 655209) at 200 μL/well, the software parameters were set, the temperature was 30° C., and the standard kinetic signal was collected at a frequency of 5.0 Hz; and an SA sensor (Fortebio, Cat. No. 18-5020) was pre-wetted with 1× PBST for 10 min and then tested on a machine.
(§4) The equilibrium dissociation constants (KD) of the antibodies were calculated by measuring the association rates (Kon) and the dissociation rates (Koff) of the antigen-antibody in a 1:1 binding manner by adopting the Data Analysis 12.0 software from Fortebio.

| Binder | Kd | Response value | koff | kon |
| --- | --- | --- | --- | --- |
| B10 | 0.454 nM | 3.19 | 0.000196 s⁻¹ | 432000 M⁻¹ s⁻¹ |
| B11 | 0.489 nM | 3 | 0.000231 s⁻¹ | 472000 M⁻¹ s⁻¹ |
| B12 | 0.418 nM | 3.06 | 0.000194 s⁻¹ | 465000 M⁻¹ s⁻¹ |

Biological target: T2, biotin-labeled human ADM
Assay: as above
Description: as §3, §4

| Binder | Kd | Response value | koff | kon |
| --- | --- | --- | --- | --- |
| B10 | 0.457 nM | 2.69 | 0.000201 s⁻¹ | 441000 M⁻¹ s⁻¹ |
| B11 | 0.546 nM | 2.39 | 0.000252 s⁻¹ | 461000 M⁻¹ s⁻¹ |
| B12 | 0.429 nM | 2.58 | 0.000201 s⁻¹ | 468000 M⁻¹ s⁻¹ |

Biological target: T1, biotin-labeled mouse ADM
Assay: BLI (Octet RED96e), as in Example 3
Description: as §3, §4
(§5) Similar to Example 3, the affinity of the affinity-matured antibodies Ab2004.Am31 -Ab2004.Am40 and the parent antibody Ab2004.Am01 for human and mouse ADM was further determined, respectively, and the results are shown in Table 10. It can be seen from Table 10 […].

| Binder | Kd | Response value | koff | kon |
| --- | --- | --- | --- | --- |
| B13 | 0.469 nM | 2.85 | 0.00033 s⁻¹ | 703000 M⁻¹ s⁻¹ |
| B14 | 0.467 nM | 2.88 | 0.000342 s⁻¹ | 733000 M⁻¹ s⁻¹ |
| B15 | 0.489 nM | 2.7 | 0.000266 s⁻¹ | 543000 M⁻¹ s⁻¹ |
| B16 | 0.492 nM | 2.65 | 0.000253 s⁻¹ | 513000 M⁻¹ s⁻¹ |
| B17 | 0.497 nM | 2.75 | 0.000297 s⁻¹ | 597000 M⁻¹ s⁻¹ |
| B18 | 2.21 nM | 2.35 | 0.000956 s⁻¹ | 434000 M⁻¹ s⁻¹ |

Biological target: T2, biotin-labeled human ADM
Assay: BLI (Octet RED96e), as in Example 3
Description: as §3, §4, §5

| Binder | Kd | Response value | koff | kon |
| --- | --- | --- | --- | --- |
| B13 | 0.256 nM | 2.88 | 0.00015 s⁻¹ | 587000 M⁻¹ s⁻¹ |
| B14 | 0.255 nM | 2.83 | 0.00016 s⁻¹ | 626000 M⁻¹ s⁻¹ |
| B15 | 0.178 nM | 2.57 | 8.33e-05 s⁻¹ | 468000 M⁻¹ s⁻¹ |
| B16 | 0.352 nM | 2.66 | 0.000158 s⁻¹ | 449000 M⁻¹ s⁻¹ |
| B17 | 0.567 nM | 2.07 | 0.000382 s⁻¹ | 673000 M⁻¹ s⁻¹ |
| B18 | 0.766 nM | 2.34 | 0.000233 s⁻¹ | 305000 M⁻¹ s⁻¹ |
